{
  "source": "paper doi:10.1101/388868",
  "molecular_target": "C. elegans UNC-13 long isoform residues 1-258 bearing the K49E mutation (C. elegans)",
  "assay": "ITC",
  "data": [
    {"binder": "C. elegans UNC-10 residues 62-121 WT (domain or fragment) KLVGTQDDAICQICQKTKFADGIGHKCFYCQLRSCARCGGRAQSKNKAIWACSLCQKRQQ", "values": [
      {"measurement": "Kd", "result": 1290, "unit": "nM"}
    ]}
  ]
}
